Assay results from the supplement of paper PMC7877785.
± gives the uncertainty stated by the source.

Test: self-splicing fitness, log relative to wild type (ln ratio); higher = more splicing; Tetrahymena group I intron in knt gene, E. coli kanamycin selection, DiMSum; sequences stand for … in CUCUCU…GGAGGGAAAAGUUAUCAGGCAUGCACCUGGUAGCUAGUCUUUAAACCAAUAGAUUGCAUCGGUUUAAAAGGCAAGACCGUCAAAUUGCGGGAAAGGGGUCAACAGCCGUUCAGUACCAAGUCUCAGGGGAAACUUUGAGAUGGCCUUGCAAAGGGUAUGGUAAUAAGCUGACGGACAUGGUCCUAACCACGCAGCCAAGUCCUAAGUCAACAGAUCUUCUGUUGAUAUGGAUGCAGUUCACAGACUAAAUGUCGGUCGGGGAAGAUGUAUUCUUCUCAUAAGAUAUAGUCGGACCUCUCCUUAAUGGGAGCUAGCGGAUGAAGUGAUGCAACACUGGAGCCGCUGGGAACUAAUUUGUAUGCGAAAGUAUAUUGAUUAGUUUUGGAGUACUCGUGGUCG
Procedure, shortened: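 The eight P1ex-region nucleotides of an intron in the knt kanamycin-resistance gene on pET-22b(+) were all randomised and the library put into E. coli BL21(DE3). Six replicate transformations were grown overnight at 37°C or 30°C on LB agar with or without 25 μg/mL kanamycin, together with 100 μg/mL carbenicillin, 50 μM IPTG and 0.2% rhamnose. Colonies were pooled and amplicon-sequenced on an Illumina HiSeq 2500. Fitness from DiMSum is the error-weighted combination of wild-type-normalised replicate fold changes, kanamycin over none.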

Sequence	self-splicing fitness (ln) (30 °C)	self-splicing fitness (ln) (37 °C)
AUGUAGCAAUAUUACGUACA	-0.425 ± 0.14	-0.328 ± 0.16
AUGUAGCAAUAUUACGUCAU	-1.81 ± 0.059	-0.896 ± 0.069
AUGUAGCAAUAUUACGUGCG	-1.8 ± 0.09	-0.122 ± 0.097
AUGUAGCAAUAUUACGUGGA	-1.58 ± 0.22	-3.15 ± 0.24
AUGUAGCAAUAUUACGUGGC	-4.11 ± 0.46	-2.84 ± 0.25
AUGUAGCAAUAUUACGUGUU	-2.4 ± 0.12	-1.08 ± 0.14
AUGUAGCAAUAUUACGUUCU	-1.05 ± 0.082	-0.469 ± 0.094
AUGUAGCAAUAUUACGUUUU	-2.64 ± 0.074	-1.8 ± 0.1
AUUAAGCAAUAUUACGAGGG	–	-2.96 ± 0.36
AUUAAGCAAUAUUACGAUCC	-0.418 ± 0.11	-0.106 ± 0.19
AUUAAGCAAUAUUACGCCCA	-1.11 ± 0.19	-0.42 ± 0.29
AUUAAGCAAUAUUACGCGGU	-3.93 ± 0.47	-3.09 ± 0.35
AUUAAGCAAUAUUACGCUGC	-3.87 ± 0.27	-1.98 ± 0.22
AUUAAGCAAUAUUACGGAAC	-3.44 ± 0.2	-0.822 ± 0.13
AUUAAGCAAUAUUACGGAGA	-2.53 ± 0.19	-3.25 ± 0.32
AUUAAGCAAUAUUACGGAUC	-1.85 ± 0.16	-0.479 ± 0.18
AUUAAGCAAUAUUACGGCUA	-0.106 ± 0.11	-0.122 ± 0.11
AUUAAGCAAUAUUACGGGUA	-2.2 ± 0.17	-0.0398 ± 0.12
AUUAAGCAAUAUUACGUCGA	-1 ± 0.1	-0.855 ± 0.13
AUUAAGCAAUAUUACGUCGU	-1.43 ± 0.094	-0.383 ± 0.12
AUUAAGCAAUAUUACGUGGG	-3.45 ± 0.17	-2.44 ± 0.16
AUUAAGCAAUAUUACGUUAA	-2.52 ± 0.15	-1.35 ± 0.12
AUUAAGCAAUAUUACGUUGA	-2.67 ± 0.24	-1.95 ± 0.16
AUUCAGCAAUAUUACGAAGC	-3.62 ± 0.27	-1.32 ± 0.17
AUUCAGCAAUAUUACGACCC	0.119 ± 0.42	–

Sequence	self-splicing fitness (ln) (30 °C)	self-splicing fitness (ln) (37 °C)
AUUCAGCAAUAUUACGACGU	-0.0483 ± 0.06	0.146 ± 0.068
AUUCAGCAAUAUUACGAGAA	-1.51 ± 0.18	-1.74 ± 0.18
AUUCAGCAAUAUUACGCACG	-0.783 ± 0.16	-0.413 ± 0.16
AUUCAGCAAUAUUACGCGAG	-0.677 ± 0.065	-0.126 ± 0.079
AUUCAGCAAUAUUACGCUCU	-0.186 ± 0.094	0.683 ± 0.12
AUUCAGCAAUAUUACGCUGU	-2.87 ± 0.21	-1.09 ± 0.18
AUUCAGCAAUAUUACGCUUG	-0.971 ± 0.083	-0.265 ± 0.093
AUUCAGCAAUAUUACGGAGA	-1.48 ± 0.12	-0.618 ± 0.11
AUUCAGCAAUAUUACGGAGC	-2.82 ± 0.23	-1.71 ± 0.19
AUUCAGCAAUAUUACGGGAG	-0.828 ± 0.051	-0.443 ± 0.063
AUUCAGCAAUAUUACGGGCG	-0.695 ± 0.1	-0.0814 ± 0.12
AUUCAGCAAUAUUACGGUGU	-0.571 ± 0.042	-0.106 ± 0.055
AUUCAGCAAUAUUACGUAUC	-3.62 ± 0.26	-1.04 ± 0.16
AUUCAGCAAUAUUACGUCCU	-1.05 ± 0.066	-0.0115 ± 0.11
AUUCAGCAAUAUUACGUCGA	-0.991 ± 0.085	-0.503 ± 0.097
AUUCAGCAAUAUUACGUGGG	-2.63 ± 0.11	-1.87 ± 0.1
AUUCAGCAAUAUUACGUUCC	-1.54 ± 0.14	-1.5 ± 0.21
AUUCAGCAAUAUUACGUUGC	-2.72 ± 0.23	-2.52 ± 0.3
AUUGAGCAAUAUUACGAAUC	-2.93 ± 0.4	–
AUUGAGCAAUAUUACGAGGG	-2.87 ± 0.14	-2.85 ± 0.29
AUUGAGCAAUAUUACGAUUU	-1.11 ± 0.09	-0.383 ± 0.11
AUUGAGCAAUAUUACGCACG	-3.07 ± 0.37	–
AUUGAGCAAUAUUACGCAGA	–	-2.45 ± 0.41
AUUGAGCAAUAUUACGCAUG	-4 ± 0.32	-0.903 ± 0.26
AUUGAGCAAUAUUACGCAUU	-2.64 ± 0.23	-1.49 ± 0.18

Sequence	self-splicing fitness (ln) (30 °C)	self-splicing fitness (ln) (37 °C)
AUUGAGCAAUAUUACGCUAG	–	-2.2 ± 0.22
AUUGAGCAAUAUUACGCUCU	-3.63 ± 0.24	-2.27 ± 0.17
AUUGAGCAAUAUUACGGACG	-2.11 ± 0.3	-1.96 ± 0.32
AUUGAGCAAUAUUACGGCGU	-0.734 ± 0.11	0.573 ± 0.17
AUUGAGCAAUAUUACGGGAC	-3.28 ± 0.42	–
AUUGAGCAAUAUUACGGGGA	-2.32 ± 0.24	-2.49 ± 0.28
AUUGAGCAAUAUUACGGGGG	-4.39 ± 0.46	-3.19 ± 0.31
AUUGAGCAAUAUUACGGUCC	–	-1.58 ± 0.22
AUUGAGCAAUAUUACGUAAG	-2.78 ± 0.13	-1.82 ± 0.13
AUUGAGCAAUAUUACGUAGC	-3.31 ± 0.4	-2.32 ± 0.31
AUUGAGCAAUAUUACGUCUC	–	-2.21 ± 0.42
AUUGAGCAAUAUUACGUGAC	–	-1.61 ± 0.45
AUUGAGCAAUAUUACGUGUA	-3.52 ± 0.21	-2.69 ± 0.24
AUUGAGCAAUAUUACGUUAC	–	-1.76 ± 0.3
AUUUAGCAAUAUUACGAAUA	-2.16 ± 0.33	-0.575 ± 0.27
AUUUAGCAAUAUUACGACAU	0.163 ± 0.014	0.28 ± 0.033
AUUUAGCAAUAUUACGACGU	0.023 ± 0.064	0.539 ± 0.077
AUUUAGCAAUAUUACGAGAA	-2.09 ± 0.32	-1.2 ± 0.28
AUUUAGCAAUAUUACGAGCC	-1.74 ± 0.46	–
AUUUAGCAAUAUUACGAGUG	-2.59 ± 0.18	-0.743 ± 0.18
AUUUAGCAAUAUUACGAUAA	-1.53 ± 0.2	-0.502 ± 0.39
AUUUAGCAAUAUUACGAUUG	-2.72 ± 0.21	-2.05 ± 0.27
AUUUAGCAAUAUUACGCAGA	-2.07 ± 0.3	-1.07 ± 0.19
AUUUAGCAAUAUUACGCCCG	-1.48 ± 0.24	-1.15 ± 0.28
AUUUAGCAAUAUUACGCCUU	-0.196 ± 0.092	-0.0916 ± 0.12

Sequence	self-splicing fitness (ln) (30 °C)	self-splicing fitness (ln) (37 °C)
AUUUAGCAAUAUUACGCUCA	-1.14 ± 0.18	0.0165 ± 0.19
AUUUAGCAAUAUUACGCUGU	-1.33 ± 0.14	-1.01 ± 0.16
AUUUAGCAAUAUUACGGACA	-1.34 ± 0.27	-0.739 ± 0.27
AUUUAGCAAUAUUACGGACG	-2.26 ± 0.24	-1.75 ± 0.24
AUUUAGCAAUAUUACGGACU	0.0925 ± 0.11	0.805 ± 0.13
AUUUAGCAAUAUUACGGAUG	-1.94 ± 0.14	-1.91 ± 0.2
AUUUAGCAAUAUUACGGCAC	-0.95 ± 0.27	–
AUUUAGCAAUAUUACGGCGC	-0.408 ± 0.16	-0.248 ± 0.22
AUUUAGCAAUAUUACGGCUC	-0.153 ± 0.097	0.0525 ± 0.11
AUUUAGCAAUAUUACGGCUG	-0.937 ± 0.12	-0.723 ± 0.13
AUUUAGCAAUAUUACGGGAC	-2.36 ± 0.32	-1.32 ± 0.26
AUUUAGCAAUAUUACGGGUC	–	-2.23 ± 0.34
AUUUAGCAAUAUUACGGUGC	-4.12 ± 0.46	-1.55 ± 0.23
AUUUAGCAAUAUUACGGUUG	-2.68 ± 0.39	–
AUUUAGCAAUAUUACGUACG	-1.48 ± 0.19	-1.66 ± 0.34
AUUUAGCAAUAUUACGUAUG	-2.35 ± 0.34	-0.838 ± 0.41
AUUUAGCAAUAUUACGUGUC	-2.55 ± 0.42	-2.87 ± 0.43
AUUUAGCAAUAUUACGUUAG	-3.03 ± 0.47	-2.61 ± 0.25
AUUUAGCAAUAUUACGUUUG	-3.78 ± 0.21	-1.25 ± 0.16
CAAAAGCAAUAUUACGAAGU	-3.16 ± 0.15	-2.23 ± 0.13
CAAAAGCAAUAUUACGACGC	-0.886 ± 0.092	-1.14 ± 0.14
CAAAAGCAAUAUUACGAUUG	-2.75 ± 0.087	-1.82 ± 0.1
CAAAAGCAAUAUUACGCAGA	-2.57 ± 0.25	-1.49 ± 0.17
CAAAAGCAAUAUUACGCCAC	-2.1 ± 0.24	-1.89 ± 0.34
CAAAAGCAAUAUUACGCGCU	-3.18 ± 0.14	-0.642 ± 0.1
